In PMC12628836 one finds S/N ratio data, which are given here for two substances.

Common to all, as to test: ELISA; attachment factors coated at 280.0 pmol/mL in carbonate-bicarbonate buffer overnight at 4 C, blocked with 1.0% BSA; P protein (GI.1 or GII.4) 10.0 ug/mL, 1 h at 37 C; detected with anti-HuNoV monoclonal antibodies; positive when S/N >= 2.0
In general terms: ELISA stands for enzyme-linked immunosorbent assay.

Test [1] concerns the target recombinant C2K0J4 (Penicillin-binding protein, transpeptidase domain protein) (Lactobacillus rhamnosus YQ001).
Test [2] has as its target recombinant C2JX39 (DNA topoisomerase 4 subunit A) (Lactobacillus rhamnosus YQ001).
Test [3] deals with recombinant oyster heat shock protein 70 (oyster).
For test [4], the target named is recombinant C2JVE6 (ATP-dependent zinc metalloprotease) (Lactobacillus rhamnosus YQ001).

Sequence of GI.1 HuNoV P protein (domain or fragment) (Q83884 226-530 limits assumed): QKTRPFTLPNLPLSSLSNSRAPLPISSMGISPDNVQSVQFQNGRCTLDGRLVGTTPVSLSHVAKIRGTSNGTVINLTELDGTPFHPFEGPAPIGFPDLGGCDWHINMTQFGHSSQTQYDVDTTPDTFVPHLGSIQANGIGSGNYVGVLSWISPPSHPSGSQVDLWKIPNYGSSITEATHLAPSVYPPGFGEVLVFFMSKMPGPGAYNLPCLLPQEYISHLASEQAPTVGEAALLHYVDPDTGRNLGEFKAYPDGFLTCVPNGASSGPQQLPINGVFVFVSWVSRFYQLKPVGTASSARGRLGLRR

Turning to “GI.1 HuNoV P protein (domain or fragment)”, the S/N ratio in test [1] was determined as 16.4; in test [2], 16.4; in test [3], 15.5; in test [4], 16.6.

As to “GII.4 HuNoV P protein (domain or fragment)”, the S/N ratio in test [1] worked out at 17.3; in test [3] it was 16; in test [4], 16.7.
